Source: publication PMC3974974

How the values were obtained:
Experiment in all cases: SPR; SIRPα variants immobilized via a biotin tag on a streptavidin-coated CM5 chip, BIAcore 3000, 37 °C; dilutions of soluble monomeric CD47 (0.05 to 25.7 μM) injected; KD from equilibrium binding; purification of the variants from 293T not told
[1] = target: SIRPα variant v7, three Ig superfamily domains linked to rat CD4d3 and -4 and a biotinylation sequence (human)
[2] = target: SIRPα variant v10, three Ig superfamily domains linked to rat CD4d3 and -4 and a biotinylation sequence (human)
[3] = target: SIRPα variant v2, three Ig superfamily domains linked to rat CD4d3 and -4 and a biotinylation sequence (human)
[4] = target: SIRPα variant v1, three Ig superfamily domains linked to rat CD4d3 and -4 and a biotinylation sequence (human)
[5] = target: SIRPα variant v5, three Ig superfamily domains linked to rat CD4d3 and -4 and a biotinylation sequence (human)
Chain of SIRPα variant v5, three Ig superfamily domains linked to rat CD4d3 and -4 and a biotinylation sequence (human) (P78324 31-504, stated change not applied): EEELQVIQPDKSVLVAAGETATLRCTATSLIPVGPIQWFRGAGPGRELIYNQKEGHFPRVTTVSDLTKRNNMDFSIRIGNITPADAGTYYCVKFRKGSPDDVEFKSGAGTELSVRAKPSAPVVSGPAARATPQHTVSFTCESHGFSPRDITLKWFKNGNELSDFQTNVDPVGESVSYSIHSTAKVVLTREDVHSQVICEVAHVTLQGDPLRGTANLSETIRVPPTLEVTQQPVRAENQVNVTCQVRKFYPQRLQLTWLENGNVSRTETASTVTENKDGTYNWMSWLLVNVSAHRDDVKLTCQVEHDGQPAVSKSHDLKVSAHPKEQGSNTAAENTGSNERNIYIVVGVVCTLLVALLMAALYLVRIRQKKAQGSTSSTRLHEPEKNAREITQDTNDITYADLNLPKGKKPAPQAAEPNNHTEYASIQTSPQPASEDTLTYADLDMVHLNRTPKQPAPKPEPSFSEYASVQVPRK

Chain of SIRPα variant v7, three Ig superfamily domains linked to rat CD4d3 and -4 and a biotinylation sequence (human) (P78324 31-504, stated change not applied): as above

- Kd [1]: 650 nM
- Kd [2]: 670 nM
- Kd [3]: 640 nM
- Kd [4]: 740 nM
- Kd [5]: 780 nM
Substance: Recombinant CD47 Ig superfamily domain (from UniProt Q08722 19-136) (domain or fragment)
